Target: T1, IL-17 (SEQ ID NO:80), hIL-17 with C-terminal FlagHis tag (human)
T1 construct: The entry holds the IL-17 part and the Flag-His tag
Assay: SPR (Biacore 3000): antibody captured on anti-human Fc, saturating IL-17 injected; RU of IL-17 per RU captured, relative to WT IgG
Method: The extent of HC/LC assembly is assessed using a kinetic Biacore experiment. Briefly, kinetic surface Plasmon resonance (SPR) experiments are performed using a Biacore 3000 (GE Healthcare). IgG-TCR proteins are captured onto CM5 sensorchip surfaces with an immobilized goat anti-human IgG-Fc polyclonal antibody (Jackson ImmunoResearch, Cat. #109-005-098). The goat polyclonal antibody immobilization is achieved by injecting the protein (at 50 μg/mL, pH 5) over an NHS/EDC activated sensorchip surface followed by blocking with ethanolamine (as described by manufacturer). The IgG or IgG-TCRs are captured onto the anti-human Fc sensorchip surface by injecting 10 μL of protein at 0.1 and 0.5 mg/mL using a 2 […]. Flow rates are increased to 10 μL/min followed by secondary 30 μL injections of IL-17 (SEQ ID NO:80) at 10 and 50 nM. Following a 15 minute dissociation period, the flow rate is increased to 60 μL/min and sensorchip surfaces are regenerated using two consecutive 10 μL injections of 0.1 M glycine, pH 2.0.
The experiment measures the percent activity by relating the amount of captured IgG or IgG-TCR (based on resonance units) with the secondary response generated using a saturating level of IL-17. The percent activity of each IgG-TCR is calculated based on a comparison with the WT IgG: […]

T1 sequence (chain, as listed by the source limits assumed): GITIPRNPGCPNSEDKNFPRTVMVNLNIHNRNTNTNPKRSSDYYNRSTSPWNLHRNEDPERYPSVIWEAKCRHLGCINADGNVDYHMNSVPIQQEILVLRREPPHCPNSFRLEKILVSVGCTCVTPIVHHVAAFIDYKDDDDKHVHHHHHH

Activity by kinetic Biacore (percent activity relative to WT IgG) [%] | Binder
100 | anti-human IL-17 IgG4/κ antibody (antibody, Parent IgG4/kappa antibody of the IgG-TCR constructs TCR1-TCR8; also called Anti-IL17/IgG4; Anti-17 IgG4) heavy: not shown light: DIVMTQTPLSLSVTPGQPASISCRSSRSLVHSRGNTYLHWYLQKPGQSPQLLIYKVSNRFIGVPDRFSGSGSGTDFTLKISRVEAEDVGVYYCSQSTHLPFTFGQGTKLEIKRTVAAPSVFIFPPSDEQLKSGTASVVCLLNNFYPREAKVQWKVDNALQSGNSQESVTEQDSKDSTYSLSSTLTLSKADYEKHKVYACEVTHQGLSSPVTKSFNRGEC
17 | TCR3 (anti-IL-17 IgG-TCR, truncated Cβ for CH1, truncated Cα for CL) (antibody) heavy: not shown light: DIVMTQTPLSLSVTPGQPASISCRSSRSLVHSRGNTYLHWYLQKPGQSPQLLIYKVSNRFIGVPDRFSGSGSGTDFTLKISRVEAEDVGVYYCSQSTHLPFTFGQGTKLEIKIQNPDPAVYQLRDSKSSDKSVCLFTDFDSQTNVSQSKDSDVYITDKTVLDMRSMDFKSNSAVAWSNKSDFACANAFNNSIIPEDTFFPSPESSCDVK
35 | TCR2 (anti-IL-17 IgG-TCR, Cα for CH1, Cβ for CL) (antibody, IgG-TCR format with IgG4PAA hinge-Fc) heavy: not shown light: DIVMTQTPLSLSVTPGQPASISCRSSRSLVHSRGNTYLHWYLQKPGQSPQLLIYKVSNRFIGVPDRFSGSGSGTDFTLKISRVEAEDVGVYYCSQSTHLPFTFGQGTKLEIKEDLNKVFPPEVAVFEPSEAEISHTQKATLVCLATGFFPDHVELSWWVNGKEVHSGVSTDPQPLKEQPALNDSRYCLSSRLRVSATFWQNPRNHFRCQVQFYGLSENDEWTQDRAKPVTQIVSAEAWGRADCGFTS
48 | TCR8 (anti-IL-17 IgG-TCR, truncated Cα for CH1, Cβ for CL) (antibody, IgG-TCR format with IgG4PAA hinge-Fc) heavy: not shown light: DIVMTQTPLSLSVTPGQPASISCRSSRSLVHSRGNTYLHWYLQKPGQSPQLLIYKVSNRFIGVPDRFSGSGSGTDFTLKISRVEAEDVGVYYCSQSTHLPFTFGQGTKLEIKEDLNKVFPPEVAVFEPSEAEISHTQKATLVCLATGFFPDHVELSWWVNGKEVHSGVSTDPQPLKEQPALNDSRYCLSSRLRVSATFWQNPRNHFRCQVQFYGLSENDEWTQDRAKPVTQIVSAEAWGRADCGFTS
54 | TCR4 (anti-IL-17 IgG-TCR, truncated Cα for CH1, truncated Cβ for CL) (antibody, IgG-TCR format with IgG4PAA hinge-Fc) heavy: not shown light: DIVMTQTPLSLSVTPGQPASISCRSSRSLVHSRGNTYLHWYLQKPGQSPQLLIYKVSNRFIGVPDRFSGSGSGTDFTLKISRVEAEDVGVYYCSQSTHLPFTFGQGTKLEIKKVFPPEVAVFEPSEAEISHTQKATLVCLATGFFPDHVELSWWVNGKEVHSGVSTDPQPLKEQPALNDSRYCLSSRLRVSATFWQNPRNHFRCQVQFYGLSENDEWTQDRAKPVTQIVSAEAWGRADCGFTS
35 | TCR6 (anti-IL-17 IgG-TCR, Cα for CH1, truncated Cβ for CL) (antibody, IgG-TCR format with IgG4PAA hinge-Fc) heavy: not shown light: DIVMTQTPLSLSVTPGQPASISCRSSRSLVHSRGNTYLHWYLQKPGQSPQLLIYKVSNRFIGVPDRFSGSGSGTDFTLKISRVEAEDVGVYYCSQSTHLPFTFGQGTKLEIKKVFPPEVAVFEPSEAEISHTQKATLVCLATGFFPDHVELSWWVNGKEVHSGVSTDPQPLKEQPALNDSRYCLSSRLRVSATFWQNPRNHFRCQVQFYGLSENDEWTQDRAKPVTQIVSAEAWGRADCGFTS

Target: T2, hEGFR-Fc (Cat. #344-ER-050, R&D systems) (human, UniProt P00533 25-645)
T2 construct: Bought reagent; not shown: Fc part of the bought fusion
Assay: EGFR/HER-2 sandwich ELISA: hEGFR-Fc coat, compound titrated, detection with 0.2 µg/mL hHER-2-Histag and anti-His-HRP
Method: (§1) Specifically, clear 96-well round bottom high binding microtiter plates (Greiner) are coated overnight at 2-8° C. with 50 μL/well 1 μg/mL hEGFR-Fc (Cat. #344-ER-050, R&D systems) in a 50 mM Na₂CO₃ pH 9.4 buffer. The plate is washed 4× times with PBST and blocked with 100 μL/well casein buffer (Pierce) for 1 hr at 37° C. The plate is then washed 4× times with PBST and test compounds are added at 50 μL/well and 30 μg/mL […] and serially diluted 1:2 down the plate. The test compounds are incubated on the plate for 1 hr at 37° C. The plate is washed 4× times with PBST and 50 μL/well 0.2 μg/mL hHER-2-Histag (Sino Biologics) is added for 1 hr at 37° C. The plate is then washed 4× times with PBST followed by the addition of a 50 μL/well secondary anti-Histag-HRP antibody (PENTA-His-HRP, Qiagen) diluted 1:1000 in PBST. The secondary antibody is incubated for 1 hr at 37° C. The plate is then washed 4× times with PBST and 100 μL/well 1-component 3,3′,5,5′-Tetramethylbenzidine (TMB) substrate is added (KPL laboratories). After approximately 10 minutes, 100 μL/well 1% H₃PO₄ (in H₂O) is added to quench the reaction. Absorbance (450 nm) of every well in the plate is read using a SpectraMax UV plate reader (Molecular Devices).

EC50 [nM] | Binder
< 1 | C-mTCRpG1 (bispecific antibody, human IgG1, kappa, Anti-EGFR (matuzumab TCR-Fab) / anti-HER-2 (pertuzumab IgG-Fab) IgG-(Fab)2, Format 1) heavy: not shown light 1: not shown light 2: DIQMTQSPSSLSASVGDRVTITCSASSSVTYMYWYQQKPGKAPKLLIYDTSNLASGVPSRFSGSGSGTDYTFTISSLQPEDIATYYCQQWSSHIFTFGQGTKVEIKKVFPPEVAVFEPSEAEISHTQKATLVCLATGFFPDHVELSWWVNGKEVHSGVSTDPQPLKEQPALNDSRYCLSSRLRVSATFWQNPRNHFRCQVQFYGLSENDEWTQDRAKPVTQIVSAEAWGRADC
2 | N-mTCRpG1 (bispecific antibody, human IgG1, kappa, Anti-EGFR (matuzumab TCR-Fab) / anti-HER-2 (pertuzumab IgG) IgG-(Fab)2, Format 3; also called N-mTCRpG1ds) heavy: not shown light 1: not shown light 2: DIQMTQSPSSLSASVGDRVTITCSASSSVTYMYWYQQKPGKAPKLLIYDTSNLASGVPSRFSGSGSGTDYTFTISSLQPEDIATYYCQQWSSHIFTFGQGTKVEIKKVFPPEVAVFEPSEAEISHTQKATLVCLATGFFPDHVELSWWVNGKEVHSGVSTDPQPLKEQPALNDSRYCLSSRLRVSATFWQNPRNHFRCQVQFYGLSENDEWTQDRAKPVTQIVSAEAWGRADC

Target: T3, hHER-2-Histag (Sino Biologics) (human, UniProt P04626 23-652)
T3 construct: Bought reagent; not shown: His tag
Assay: EGFR/HER-2 sandwich ELISA: hEGFR-Fc coat, test compound, detection with hHER-2-Histag and anti-His-HRP
Method: as §1

Binder | binding result
mTCR-G1(-) (antibody, human IgG1, Matuzumab Fv in IgG-TCR format (anti-EGFR IgG-TCR control)) heavy: not shown light: DIQMTQSPSSLSASVGDRVTITCSASSSVTYMYWYQQKPGKAPKLLIYDTSNLASGVPSRFSGSGSGTDYTFTISSLQPEDIATYYCQQWSSHIFTFGQGTKVEIKKVFPPEVAVFEPSEAEISHTQKATLVCLATGFFPDHVELSWWVNGKEVHSGVSTDPQPLKEQPALNDSRYCLSSRLRVSATFWQNPRNHFRCQVQFYGLSENDEWTQDRAKPVTQIVSAEAWGRADC | no binding (tested: 30 µg/mL (20 nM), serially diluted 1:2)
